Data taken from patent CN113817050A (WUHAN INST OF BIOLOGICAL PRODUCTS CO LTD, dated 2021).

How the values were obtained:
[1] = biological target: SARS-CoV-2刺突S1亚基蛋白(Sino公司，货号:40591-V02H) (SARS-CoV-2 (2019-nCoV), UniProt P0DTC2 16-685)
[2] = biological target: SARS-CoV-2 RBD结构域重组蛋白(Sino公司，货号40592-V05H) (SARS-CoV-2 (2019-nCoV), UniProt P0DTC2 319-541)
[3] = biological target: T1, SARS-CoV-2刺突S1-His重组蛋白(Sino公司，货号:40591-V08H) (SARS-CoV-2 (2019-nCoV), UniProt P0DTC2 16-685); assay: ELISA, S1-His coated at 1.0 μg/mL, detection by goat anti-human IgG-HRP
T1 construct: domain: S1; also called S1蛋白; 刺突蛋白S1

B1: 抗SARS-CoV-2的单克隆抗体1H8 (antibody, V domains shown)
VH: EVQLVESGGGLVQPGGSLRLSCAASEITVSSNYMNWVRQAPGKGLEWVSVIYSGGTTYYADSVKGRFTISRDNSENTLYLQMNSLRAEDTAVYYCARDLMEVGGMDVWGQGTTVTVSS
VL: DIVMTQSPSSLSASVGDRVTITCRASQGVSNYLAWYQQKPGKVPKLLIYAASTLQSGVPSRFSGSRSGTDFTLTISSLQPEDVATYYCQNYNSAPFAFGPGTKVEIK
notes: also called 人源抗SARS-CoV-2抗体1H8; 1H8抗体
IC50 [1]: 5.76 nM | EC50 [2]: 0.035 nM | IC50 [2]: 3.6 nM | EC50 [3]: 0.054 nM
